Results: publication PMC8225418

Experiments:
[1] = target: T1, wt Dpo4 (DNA polymerase IV) (Sulfolobus solfataricus, UniProt Q97W02 1-352); experiment: stopped-flow FRET
T1 sequence: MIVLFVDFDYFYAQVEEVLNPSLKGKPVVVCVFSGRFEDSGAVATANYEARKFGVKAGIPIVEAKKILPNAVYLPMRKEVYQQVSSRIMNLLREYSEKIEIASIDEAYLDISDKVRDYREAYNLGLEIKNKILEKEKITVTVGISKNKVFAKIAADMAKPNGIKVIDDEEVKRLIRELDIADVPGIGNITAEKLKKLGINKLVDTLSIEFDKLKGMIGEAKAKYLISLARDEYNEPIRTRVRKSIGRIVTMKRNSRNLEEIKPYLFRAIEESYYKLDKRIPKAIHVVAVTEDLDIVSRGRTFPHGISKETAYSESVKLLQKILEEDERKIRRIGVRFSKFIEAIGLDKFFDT

[2] = target: T1, wt Dpo4 (DNA polymerase IV); experiment: stopped-flow fluorescence anisotropy

B1: DNAOH (21-mer/30-mer) (dsDNA)
DNA 1: CGAGCCGTCGCATCCTACCGC
DNA 2: GATGCTGCAGCGGTAGGATGCGACGGCTCG
[1]
  binding result: binds

B2: Alexa488-labeled DNAOH (dsDNA)
DNA 1: CGAGCCGTCGCATCCTACCGC
DNA 2: B1 DNA 2
modifications: 5-C6-amino-2'-deoxythymidine at T13 of primer (ninth base from 3' end)
[2]
  binding result: binds
